Results taken from patent publication US20250346685A1 (published 2025).
Where a chain is given by its changes, count along the chain named.

T1: human CD3εγ-Fc heterodimer (human)
T1 construct: also called human CD3εγ recombinant protein; human CD3εγ protein
T1 chain 1: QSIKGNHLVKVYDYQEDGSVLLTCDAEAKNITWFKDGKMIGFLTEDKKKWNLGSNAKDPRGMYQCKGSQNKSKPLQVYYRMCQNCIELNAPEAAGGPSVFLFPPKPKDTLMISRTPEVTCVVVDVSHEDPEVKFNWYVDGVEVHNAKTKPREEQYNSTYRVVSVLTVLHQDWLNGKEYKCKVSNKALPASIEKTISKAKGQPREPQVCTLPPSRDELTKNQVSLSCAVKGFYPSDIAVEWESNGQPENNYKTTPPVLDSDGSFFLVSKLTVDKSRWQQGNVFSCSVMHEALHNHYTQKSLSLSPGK
T1 chain 2: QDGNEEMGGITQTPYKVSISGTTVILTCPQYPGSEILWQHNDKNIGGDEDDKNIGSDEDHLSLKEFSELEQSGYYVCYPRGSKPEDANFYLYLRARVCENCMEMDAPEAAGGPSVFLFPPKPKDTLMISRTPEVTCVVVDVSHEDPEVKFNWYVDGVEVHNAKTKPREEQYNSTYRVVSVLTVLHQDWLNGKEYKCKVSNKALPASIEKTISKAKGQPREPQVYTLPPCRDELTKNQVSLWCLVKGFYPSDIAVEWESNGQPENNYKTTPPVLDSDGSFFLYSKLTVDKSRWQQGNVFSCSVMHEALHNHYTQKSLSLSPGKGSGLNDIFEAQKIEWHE

B1: BCMA × CD3 κλ003 (bispecific antibody, human IgG4 S228P, kappa, lambda)
light 1: DIVLTQSPASLAVSPGQRATITCRASKSVSTSGYSYMHWYQKKPGQPPKLLIYLASNLESGVPARFSGSGSGTDFTLTINPVEAEDTANYYCQHSRELPWTFGQGTKVEIKRTVAAPSVFIFPPSDEQLKSGTASVVCLLNNFYPREAKVQWKVDNALQSGNSQESVTEQDSKDSTYSLSSTLTLSKADYEKHKVYACEVTHQGLSSPVTKSFNRGEC
heavy 1: QVQLVQSGSELKKPGASVKVSCKASGYIFTNFGMNWVREAPGQGLEWMGWINTYTGEQIYADGFTGRFVFSLDTSASTAYLQISSLKAEDTAVYFCARGEIYYGYDVGFVYWGQGTLVTVSSASTKGPSVFPLAPCSRSTSESTAALGCLVKDYFPEPVTVSWNSGALTSGVHTFPAVLQSSGLYSLSSVVTVPSSSLGTKTYTCNVDHKPSNTKVDKRVESKYGPPCPPCPAPEFEGGPSVFLFPPKPKDTLMISRTPEVTCVVVDVSQEDPEVQFNWYVDGVEVHNAKTKPREEQFNSTYRVVSVLTVLHQDWLNGKEYKCKVSNKGLASSIEKTISKAKGQPREPQVCTLPPSQEEMTKNQVSLSCAVKGFYPSDIAVEWESNGQPENNYKTTPPVLDSDGSFFLVSKLTVDKSRWQEGNVFSCSVMHEALHNHYTQKSLSLSLGK
light 2: QAVVTQEPSLTVSPGGTVTLTCRSSTGAVTTSNYANWVQEKPGQAPRGLIGGTNKRAPWTPARFSGSLLGGKAALTITGAQAEDEAEYYCVLWYSNLWVFGGGTKLTVLGQPKAAPSVTLFPPSSEELQANKATLVCLISDFYPGAVTVAWKADSSPVKAGVETTTPSKQSNNKYAASSYLSLTPEQWKSHRSYSCQVTHEGSTVEKTVAPTECS
heavy 2: EVQLVESGGGLVQPGGSLRLSCAASGFTFNTYAMNWVRKAPGKGLEWVGRIRSKYNNYATYYADSVKDRFTISRDDSKNSLYLQMNSLKTEDTAVYYCVRHGNFGNSYVSWFAYWGQGTLVTVSSASTKGPSVFPLAPCSRSTSESTAALGCLVKDYFPEPVTVSWNSGALTSGVHTFPAVLQSSGLYSLSSVVTVPSSSLGTKTYTCNVDHKPSNTKVDKRVESKYGPPCPPCPAPEFEGGPSVFLFPPKPKDTLMISRTPEVTCVVVDVSQEDPEVQFNWYVDGVEVHNAKTKPREEQFNSTYRVVSVLTVLHQDWLNGKEYKCKVSNKGLASSIEKTISKAKGQPREPQVYTLPPCQEEMTKNQVSLWCLVKGFYPSDIAVEWESNGQPENNYKTTPPVLDSDGSFFLYSKLTVDKSRWQEGNVFSCSVMHEALHNHYTQKSLSLSLGK
notes: also called BCMA×CD3 κλ bispecific antibody
B2: BCMA × CD3 κλ005 (bispecific antibody)
light 1: B1 light 1
heavy 1: B1 heavy 1 with A76V
light 2: B1 light 2
heavy 2: B1 heavy 2
notes: as for B1
B3: BCMA × CD3 κλ006 (bispecific antibody)
light 1: B1 light 1 with S30T, M37I, N57D, S60A
heavy 1: B1 heavy 1 with A76V
light 2: B1 light 2
heavy 2: B1 heavy 2
notes: as for B1
B4: aCD3-hVH1/VL5 (antibody, human IgG4, V domains shown)
VH: EVQLVESGGGLVQPGGSLRLSCAASGFTFNTYAMNWVRQAPGKGLEWVSRIRSKYNNYATYYADSVKDRFTISRDDSKNTLYLQMNSLRAEDTAVYYCVRHGNFGNSYVSWFAYWGQGTLVTVSS
VL: QAVVTQEPSLTVSPGGTVTLTCRSSTGAVTTSNYANWVQEKPGQAPRGLIGGTNKRAPWTPARFSGSLLGGKAALTITGAQAEDEAEYYCVLWYSNLWVFGGGTKLTVL
notes: also called humanized anti-CD3 antibody hVH1/VL5
B5: aCD3-hVH8/VL1 (antibody, human IgG4, V domains shown)
VH: B4 VH with Q39K, S49G, T80S, R89K, A90T, V99A
VL: B4 VL with E40Q, I77L, T78S, A82P, V91A
notes: also called humanized anti-CD3 antibody hVH8/VL1
B6: aCD3-hVH8/VL5 (antibody, human IgG4, V domains shown)
VH: B4 VH with Q39K, S49G, T80S, R89K, A90T, V99A
VL: B4 VL
notes: also called humanized anti-CD3 antibody hVH8/VL5
B7: aCD3-hVH9/VL1 (antibody, human IgG4, V domains shown)
VH: B4 VH with Q39K, S49G, T80S, R89K, A90T
VL: B4 VL with E40Q, I77L, T78S, A82P, V91A
notes: also called humanized anti-CD3 antibody hVH9/VL1
B8: aCD3-hVH9/VL3 (antibody, human IgG4, V domains shown)
VH: B4 VH with Q39K, S49G, T80S, R89K, A90T
VL: B4 VL with Q1E, R23E, T26D, R56E, I77L, T78S, A82P, V91A
notes: also called humanized anti-CD3 antibody hVH9/VL3

Target: T1, human CD3εγ-Fc heterodimer
Assay: SPR (Biacore T200), antigen amine-coupled on CM5 chip, antibody as analyte, 1:1 model
Description: 10 μg/mL human or cynomolgus monkey BCMA or CD3εγ recombinant antigen was bound to a CM5 chip (GE healthcare) by amino conjugating, while the amount of antigen bound was controlled to approximately 200 RU. After baseline plateau, gradient diluted antibodies (7 gradients of 2-fold dilutions from 10 μg/mL) were flowed through the chip at a flow rate of 30 μL/min for a binding time of 350 seconds and a dissociation time of 600 seconds. Kinetic constants were fitted using Biacore T200 evaluation software with a 1:1 binding model.

Binder | Kd [nM]
B1 | 31
B2 | 28
B3 | 27

target: T2, human CD3 on T cells (Jurkat cells; human peripheral blood CD4+ and CD8+ T-cells) (human, UniProt P07766 23-207); assay: flow cytometry on human peripheral blood CD4+ T-cells
T2 construct: whole, on cells; also called CD4T; CD4 + T
Description: Fresh human peripheral blood was taken and PBMC was isolated by Ficoll. Paque Plu (GE, 17-1440-03). PBMC was adjusted to 5×10⁵ cells/mL with 4% calf serum (Hyclone, SH30626.06), 100 μL/well was added to a 96-well U-plate, the supernatant was centrifuged off and 100 μL of gradient diluted antibody (with starting concentration of 1800 nM, 3-fold dilution, 10 gradients) was added to each well and incubated for 60 min at 4° C. 50 μL/well of Alexa Fluro647 labeled goat anti-human IgG Fc (1:300 dilution) was added to the secondary antibody, with ice bath for 20 min, and 50 μL/well PI added after washing once, incubated for 5 min, and flow cytometer (BD C6) was used for detection. The control antibody REGN5458 was synthesized and prepared according to US20200024356.

Binder | EC50 [nM]
B1 | 89

Target: T1, human CD3εγ-Fc heterodimer
Assay: ELISA, coated human CD3εγ recombinant protein
Description: Human CD3εγ recombinant protein was coated overnight at 4° C. After blocking with 2% skim milk, different dilutions of CD3 antibody were added to each well and incubated for 1 hour. After the secondary antibody was developed by adding HPR-labeled goat anti-human IgG Fc and TMB solution, the reaction was stopped with concentrated sulfuric acid and the absorbance was read at 450 nm.

Binder | affinity (ELISA) [nM]
B4 | 0.6
B5 | 0.65
B6 | 0.74
B7 | 0.49
B8 | 0.7

target: T2, human CD3 on T cells (Jurkat cells; …); assay: flow cytometry on Jurkat cells
Description: Jurkat cells in logarithmic growth phase were blocked with 3% BSA for 30 min, added to 96-well U-plate at 5×10^4 cells per well, centrifuged to discard the supernatant, and added with 50 μL of gradient diluted antibody (antibody concentration:from 30 μg/mL, with 3-fold dilution for 5 gradients) per well, and incubated at 4° C. for 1 hour. After washing off the primary antibody, a 1:300 dilution of Alexa Fluro647 labeled goat anti-human IgG Fc (Jackson ImmunoResearch, 109-606-170) was added to the secondary antibody, incubated for 45 min at 4° C., and, after washing, resuspended in 50 μL of PBS per well for FACS (iQue, intellicyt) detection.

Binder | affinity (FACS) [nM]
B4 | 10
B5 | 15
B7 | 7
